Here are results for two substances from PMC3608632.

In assay [1] the target is hyperphosphorylated R-topo I (CK2-treated baculovirus-expressed recombinant human topo I) (human) (UniProt P11387).
Assay [2] addresses basal phosphorylated baculovirus-expressed recombinant human topo I (R-topo I) (human) (UniProt P11387). Particulars: scale: % of supercoiled plasmid converted to the relaxed form.
Assay [3] addresses hyperphosphorylated R-topo I (CK2-treated baculovirus-expressed recombinant human topo I) (human) (UniProt P11387). Particulars: scale: % of supercoiled DNA converted to the relaxed form.
In a further assay the target is p14ARF (ARF) (UniProt Q8N726). Kind of assay: anti-FLAG IP, ARF Western. Particulars: reference: wild-type full-length topo I (construct 6); sites S506.

“recombinant thioredoxin-human ARF fusion protein (from UniProt Q8N726 1-132) (natural protein)”: the non-covalent association of R-topo I with radiolabeled plasmid DNA (DNA co-immunoprecipitated with topo I; 75 mM NaCl, 4°C), ARF added at a 1:1 molar ratio; ~60% without ARF (% of input DNA) in assay [1] was 80. The relaxation of supercoiled plasmid DNA by R-topo I with ARF added (about 40% without ARF) in assay [2] stood at 50. In assay [3], the relaxation of supercoiled plasmid DNA by R-topo I with ARF added (∼70% without ARF) is 100.
Regarding “topoisomerase I (topo I) (from UniProt P11387) S506A full-length topo I (construct 9)”, in the assay with p14ARF (ARF), the “binding against the reference” value was “weaker”.
